# Measurements reported in a protein production outcome set (Wang et al. 2014).
# Assay: label from the status in PepcDB records
row,Sequence,protein production
1,MEPVLTTKDLKHNYVDGSAELLRDPELVDPPFQVSRCAGNNRDLQTGQRSSGCVVTEIVYLSDSPYSSLNLVLRYPTTPAYPSRHFFSGLGHQMRMLSKLRFTLRSPLGLRRQPAPPPPLLVRVSLSSEPGVFIKMDLKDPASLLDLAMQCLLKNEPIIIQSLEEIPRELLIPLFCAAFLGGHKKTLTAIVKVWPFFCLHVGKLRSHETHSALLKAMIDGLQVLPAPNSASRGSKLKILDLRQDANCRTTCFPIRTKSPFCFHSCSYTQTSSRKRKGKHSTVNLGSEVQLSRYPTELLVDLSLDGTLRTSTFLSLLLSKVEQSSGALHLCCRDLQVDKLSDYNNTLKLLNLLCIDHLAVDQASLNDINTLLSQMVHLDSLSLSKITLTSLNAKIFKSFLTQLERMDNLQELNLSFFCLTNRLHKLLRVLPHDLDYLNLPFCELSYRDFRFLSQCPQAAHLKLLNLSNNPISWEDCEPLQTLMENVSGTLQHLEINHCLITDSTIFSLLPALSHCSHLRVLSFASNPITMSMLMRVLENLLPLMELKYVIYPIPVHCYERWYFQGTLDRQKLADVQVQLKAMLQAAQRGDMNWITFSE,failed
2,MEPWKQCAQWLIHCKVLPTNHRVTWDSAQVFDLAQTLRDGVLLCQLLNNLRAHSINLKEINLRPQMSQFLCLKNIRTFLTACCETFGMRKSELFEAFDLFDVRDFGKVIETLSRLSRTPIALATGIRPFPTEESINDEDIYKGLPDLIDETLVEDEEDL,failed
3,MEQDHVKVKKRVAFVLIDGLGDVTIPKLGYKTPLQAANIPNLDAIASAGINGLMDPVEVGLGCGSDTAHLSLMGYDPRVYYRGRGAFESMGAGLAMSPGDIAFKSNFATLDEKSGVVVSRRADRHFEEEGPILCAALDGLKLQSFPEYEVRVRYATEHRCGVVVKGPRLSGNISGTDPLKDNRLLLEAKPLDESEEATHTAKVVNELSREISRILVSHPVNAERAAQGKNIANLVLLRGCGIRIEVPPFHEKHGLWPCMVAPTKIIAGLGMSLGIDILEAPGATGDYRTLLTSKATAIANALSAPLNPCPNVFVPGEDGHKPGRSDGYDFGFLHIKAIDDAGHDKATMFKVRGLEAVDKAIRQLAKLLWQAESSTHYQYFLCVTGDHSTPVEYGDHSFEPVPFTMCRLRDFVSAVGGESAVLETSLDPFPLPTVVESGEDVTKQEEESGRREAPLAIGGDLVAELNEVAAARGCLGRFHGGEMMGVITNFLNLEV,failed
4,MEQLIFKQTYKKIEPFILLLNGLLLAAAISIVHIVGMHAYHLFEAASSNVPLITLAFGISAVLSSVAIWLTSRFTLPIFRLILSSVIMGIGISASYYVSMLGWNIDIYKKDYTSFLILFSVLIAMSGSGLAFLLAYKLKESERHRISLKLAFAVMMTLSIMGMHYTALISTNITDKFVSQYQAEHDLLLFTIILVTCLVLVASFIVAVLEQRLNQRNLELRKANKELANLSIQDNLTKLPNRLYLVDYAEVLLSDHRYKDQKIAFLYIDLDRFKSVNDAFGHHIGDQLLIQMANRLHWQLNEKCKLLRIGGDEFLLIAENTDTEEAMQLAEKVLHLIQDSYQISGKEINISASLGIALFPEHGQNVQDLLMNADAAMLMSKEQGRNTYTVFSYSTHQQETRSQSKLINDLYKAVEEKQFVLYYQPKFNTNLEICGVEALIRWNHPSLGMLTPHMFIGGAEKTGLIIPMGYWALEQACQQIQEWERSNTQFYPIAVNLSALQFENKKLFSTLEGLLKKYQIQPHHLIIEITESTAMRHIDLSIRACERLRDMGIRVAIDDFGTGHSSFLYLKDLPVDELKIDRGFIVDLKPGSKEEVILESIIHLAKKLGLTVTAEGVETQQQVEILTRLGCQQFQGYLLGMPVNVGQLIQSQGAHFV,failed
5,MEQLVSMGFSSDLAAEALTATGGDSIQKATDWILSHRSSPQSTATLQPKLDRFLRLHPKALAPAMGDDSSKRPNPKTQIHVAADDSNKRHKLSSSSHRQHQPLSERMRPRTLDDVVGQDHLLSPSSLLRSAVESNRLPSIVFWGPPGTGKTSIAKSLINSSKDPSLYRFVSLSAVTSGVKDVRDAVESAKRLNLEGRKRTVLFMDEVHRFNKSQQDTFLPVIEDGSILFIGATTENPSFHLITPLLSRCRVLTLNPLKPNHVETLLRRAVDDSERGLPNSVEVDDSVIEFLANNCDGDARVALNALEISATMATTRAGTDAVVSIDDAKEALQCKHLAYDKAGEQHYNLISALHKSMRGGDANAAIYWLARMLEGGEEPLYIARRLIRFASEDIGLADPSALTQAVACYQASHFLGMPECNVILAQCTAYLALAPKSIAVYRAIGAAQKVVKDSVGQNEGVPLHLRNAPTKLMKELGYGKEYIYPPSDPSSAAGQTYLPPSLLHHKFLEWPEGASGDFQDQEHRL,failed
6,MEQNSYVIIDETGIHARPATMLVQTASKFDSDIQLEYNGKKVNLKSIMGVMSLGVGKDAEITIYADGSDESDAIQAISDVLSKEGLTK,not failed
7,MEQSVPARGTSPARRLATAARHCLVLAVASILAACTTITAVTPNEPEQRLVWPGPPLQPRIEWVREVYNQKGLGVSPGFWGRIARFVLGEKEERFIRPHGILADEQIFALVDSGAGRVHLIDLKRGTYRLLPEEGKTPMVSPIGIARDSRGAIYVTDSGTGLIHRFSDDGDSFVALDLRPLHRPTGIAFNPVTGLLYVAETGAHRIVAFDSAGKETLRIGGSGMEPGAFNFPTDLAVMADGRLLVTDSLNSRIQIFTADGKPAGSFGEAGDTPGRFTRPKGVAVDSEGHIYVCDSQQDMVQIFDETGRLLLAFGDKGSLPGQFWMPSGIHIANDMIYVSDTYNQRVQVFRYLKEEPWGQDPHTPD,failed
8,MERHVPEPTHTLEGWHVLHDFRLLDFARWFSAPLEAREDAWEELKGLVREWRELEEAGQGSYGIYQVVGHKADLLFLNLRPGLDPLLEAEARLSRSAFARYLGRSYSFYSVVELGSQEKPLDPESPYVKPRLTPRVPKSGYVCFYPMNKRRQGQDNWYMLPAKERASLMKAHGETGRKYQGKVMQVISGAQGLDDWEWGVDLFSEDPVQFKKIVYEMRFDEVSARYGEFGPFFVGKYLDEEALRAFLGL,not failed
9,MERILLVLDDTGRGEIAFQKLKKLAEDGLRGEVYILYIREMEVPPFVPEEKELAAYHRLMTQSMKKLEGFKNQLEKAGLKVSDVSVVFGKYADRLLLVEKQIKPDLIVVGFKGGLLKRVIGGFFGKDPCEVLLKKSKASLLICR,not failed
10,MERLKIQVLVDNNTYIDRYFVGEPAVSYYIEIDGNRILFDSGYSDVFISNAEKLNIDLGNLTHVVFSHGHNDHTRGIQFLENRYDLSTVELVSHPNCFIPRKHGEKSIGAPFSAEEIKNIFMYNPKDKPFNLSKNCVFLGEIPSINDFEKRAKIGKCKIGDLWEDDYVLDDSAIVCKTDKGIFIVTGCSHSGICNIVEYAKKVCGDDRVIGILGGFHLFELNNRLDSTIQYLDKEEIRMLYPCHCVSFKVKAKMNEILNINEVGVGLTISILEHHHHHH,not failed
11,MERLNSKLFVENCYIMKENERLRKKAELLNQENQQLLFQLKQKLSKTKNSNNGSNNDNKSSSASGQS,failed
12,MERLSPVFATSKSSNMEVEHWMTSLKEVEKVLDSVEPKLTSSGTKWRVVAQHIKDICSDLNQIFNKEDPRYEVVQAGASAAHDFDVRYLDIHKVRTPHEPLEMRHSKGRKHGREIARLLEKIQKYRQEIEEIKKEYKETDKYRERYDHYKVKLDNLEKKNKDQERIERNQQKFKDAEAAYSSVCADLIQKMETVWKKHVSIFAEAASAVWSTQLQYAKALEAAANPIVPYLQQEEQEEEEEEEAASGTQGRVAEKAYHTNEEKVENSFQKNSAIPPSFRTASEQLTEQSKNINNAKNTSETSPAEDIEA,not failed
13,MERPVPVRVEPRQLALDLPHAESLSREDFLEGSANTAALSLIESWPDWPNRIMMLVGPEGSGKSHLAAIWAELAGARSTAAQALNAAAVPGALATGAVVVEDLVPGSFDERALFHLMNMAREDEAYVLFTGRVEPSALSIELRDLKSRLRTVPVVSLLPPDDALFRALIVKFCADRQMCIDAALVGYLANRIDRSFVAARQVVEKLDTTALRLGRPVTRALASEVLRADLEHHHHHH,failed
14,MERQQQQQQQLRNLRDFLLVYNRMTELCFQRCVPSLHHRALDAEEEACLHSCAGKLIHSNHRLMAAYVQLMPALVQRRIADYEAASAVPSVAAEQPGVSPSGS,not failed
15,MERRGELHRVRVPVSAELEIAEIADRVVKAGGPALLFERVVGKDFPVAIGLFGTRARTAFALGVEDLDELARKVEALLALEPGKGGLSALLGLLPKLPLLRGFFPRRVRRAPVQEVVWRGEEVDLRRLPVLKCWPLDGGPFLTLPLVITKDPETGELNLGMYRMQVLDPRSTAMHWQWHKVGRRHLEKAKRLGRRLEVAVALGGDPVLTYAATAPLPPLPGVSEFHLAGFLRGAPIELARGVTVDLPVPAEAEFVLEGYIDPEEPLVEEGPFGDHTGFYTPVDLYPRFHVTAVTHRKGAIYPATLVGVPPMEDAYLIEATERLFLPALRLVLPEVVDYHMPPEGVAHNWVNVSLRKAYPGQAYKVAYGMLGLGQMMFAKVIVAVDADVPVKPGFAALLEALKHALPGRDTLLLRGPVDVLDHSSRAFAFGGKLVIDGTRKLPEEGGEAPFVPKAHPGLPEDPEVLDQRQWPGLWGAVLAKRRPHQAWEVAERLLRAPQSAGIRLLLLADEDTALSPEELLWYVLNNVDPERDARVMPGVEGPVLVLDGTRKLPEEGFPRVWPERIRMDPKVKALVEARWAEYGLGWTTVGE,failed
16,MERRLGVRAWVKENRGSFQPPVCNKLMHQEQLKVMFIGGPNTRKDYHIEEGEEVFYQLEGDMVLRVLEQGKHRDVVIRQGEIFLLPARVPHSPQRFANTVGLVVERRRLETELDGLRYYVGDTMDVLFEKWFYCKDLGTQLAPIIQEFFSSEQYRTGKPIPDQLLKEPPFPLSTRSIMEPMSLDAWLDSHHRELQAGTPLSLFGDTYETQVIAYGQGSSEGLRQNVDVWLWQLEGSSVVTMGGRRLSLAPDDSLLVLAGTSYAWERTQGSVALSVTQDPACKKPLG,failed
17,MERSALVTGGASGLGRAAALALKARGYRVVVLDLRREGEDLIYVEGDVTREEDVRRAVARAQEEAPLFAVVSAAGVGLAEKILGKEGPHGLESFRRVLEVNLLGTFNVLRLAAWAMRENPPDAEGQRGVIVNTASVAAFEGQIGQAAYAASKGGVVALTLPAARELAGWGIRVVTVAPGLFDTPLLQGLPEKAKASLAAQVPFPPRLGRPEEYAALVLHILENPMLNGEVVRLDGALRMAPR,not failed
18,MESEGEAQMFADCDQKTVKQTAAKPMSSKKKQDFQALASDRQLAIVFSSMIQVSEAFDYGIGNPEYFVRISMTEEEADIAKENLESIKLENKSLKKQNSEAVALLQKTRNQDMSRIEIQQLTENRAGFFETADSMIKLINQVTPKNAKKTRQQLDQLKKQYTQYSAESIKIMNSIVKKQKADKASFERHLEALLQKQPGQQVRSELYLEHHHHHH,not failed
19,MESFSSKSLALQAEKKLLSKMAGRSVAHLFIDETSSEVLDELYRVSKEYTHSRPQAQRVIKDLIKVAIKVAVLHRNGSFGPSELALATRFRQKLRQGAMTALSFGEVDFTFEAAVLAGLLTECRDVLLELVEHHLTPKSHGRIRHVFDHFSDPGLLTALYGPDFTQHLGKICDGLRKLLDEGKL,failed
